Laboratory results taken from IntAct's records for PubMed 18441008.

B1: Steroid hormone receptor ERR1 (Homo sapiens), P11474 (parent)
chain: MSSQVVGIEPLYIKAEPASPDSPKGSSETETEPPVALAPGPAPTRCLPGHKEEEDGEGAGPGEQGGGKLVLSSLPKRLCLVCGDVASGYHYGVASCEACKAFFKRTIQGSIEYSCPASNECEITKRRRKACQACRFTKCLRVGMLKEGVRLDRVRGGRQKYKRRPEVDPLPFPGPFPAGPLAVAGGPRKTAAPVNALVSHLLVVEPEKLYAMPDPAGPDGHLPAVATLCDLFDREIVVTISWAKSIPGFSSLSLSDQMSVLQSVWMEVLVLGVAQRSLPLQDELAFAEDLVLDEEGARAAGLGELGAALLQLVRRLQALRLEREEYVLLKALALANSDSVHIEDAEAVEQLREALHEALLEYEAGRAGPGGGAERRRAGRLLLTLPLLRQTAGKVLAHFYGVKLEGKVPMHKLFLEMLEAMMD
partner: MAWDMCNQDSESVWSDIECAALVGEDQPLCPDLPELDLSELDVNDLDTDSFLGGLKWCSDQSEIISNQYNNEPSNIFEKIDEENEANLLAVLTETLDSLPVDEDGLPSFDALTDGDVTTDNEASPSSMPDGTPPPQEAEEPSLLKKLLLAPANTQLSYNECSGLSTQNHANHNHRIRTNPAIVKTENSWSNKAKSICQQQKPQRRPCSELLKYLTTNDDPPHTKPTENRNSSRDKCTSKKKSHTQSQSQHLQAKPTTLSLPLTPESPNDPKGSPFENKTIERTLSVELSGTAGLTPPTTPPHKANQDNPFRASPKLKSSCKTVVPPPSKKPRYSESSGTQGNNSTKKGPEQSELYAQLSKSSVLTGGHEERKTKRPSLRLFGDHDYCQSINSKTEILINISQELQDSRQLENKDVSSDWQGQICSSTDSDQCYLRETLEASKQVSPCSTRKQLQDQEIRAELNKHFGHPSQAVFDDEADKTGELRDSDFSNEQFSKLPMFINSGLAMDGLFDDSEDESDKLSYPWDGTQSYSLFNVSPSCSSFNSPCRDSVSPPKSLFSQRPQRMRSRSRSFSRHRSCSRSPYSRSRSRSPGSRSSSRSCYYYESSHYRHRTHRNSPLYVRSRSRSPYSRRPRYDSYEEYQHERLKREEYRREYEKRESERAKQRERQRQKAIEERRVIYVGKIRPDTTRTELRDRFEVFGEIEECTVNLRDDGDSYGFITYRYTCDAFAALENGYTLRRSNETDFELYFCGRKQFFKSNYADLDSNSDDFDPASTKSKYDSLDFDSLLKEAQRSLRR
B2: Estrogen receptor (Homo sapiens), P03372 (parent)
chain: MTMTLHTKASGMALLHQIQGNELEPLNRPQLKIPLERPLGEVYLDSSKPAVYNYPEGAAYEFNAAAAANAQVYGQTGLPYGPGSEAAAFGSNGLGGFPPLNSVSPSPLMLLHPPPQLSPFLQPHGQQVPYYLENEPSGYTVREAGPPAFYRPNSDNRRQGGRERLASTNDKGSMAMESAKETRYCAVCNDYASGYHYGVWSCEGCKAFFKRSIQGHNDYMCPATNQCTIDKNRRKSCQACRLRKCYEVGMMKGGIRKDRRGGRMLKHKRQRDDGEGRGEVGSAGDMRAANLWPSPLMIKRSKKNSLALSLTADQMVSALLDAEPPILYSEYDPTRPFSEASMMGLLTNLADRELVHMINWAKRVPGFVDLTLHDQVHLLECAWLEILMIGLVWRSMEHPGKLLFAPNLLLDRNQGKCVEGMVEIFDMLLATSSRFRMMNLQGEEFVCLKSIILLNSGVYTFLSSTLKSLEEKDHIHRVLDKITDTLIHLMAKAGLTLQQQHQRLAQLLLILSHIRHMSNKGMEHLYSMKCKNVVPLYDLLLEMLDAHRLHAPTSRGGASVEETDQSHLATAGSTSSHSLQKYYITGEAEGFPATV
partner: B1 partner

Variants of: B1
Conditions: with prgc1_human PPARGC1A

Variant | effect of a mutation on the interaction
MSSQVVGIEPLYIKAEPASPDSPKGSSETETEPPVALAPGPAPTRCLPGHKEEEDGEGAGPGEQGGGKLVLSSLPKRLCLVCGDVASGYHYGVASCEACKAFFKRTIQGSIEYSCPASNECEITKRRRKACQACRFTKCLRVGMLKEGVRLDRVRGGRQKYKRRPEVDPLPFPGPFPAGPLAVAGGPRKTAAPVNALVSHLLVVEPEKLYAMPDPAGPDGHLPAVATLCDLFDREIVVTISWAKSIPGFSSLSLSDQVSVLESVWMEVLVLGVAQRSLPLQDELAFAEDLVLDEEGARAAGLGELGAALLQLVRRLQALRLEREEYVLLKALALANSDSVHIEDAEAVEQLREALHEALLEYEAGRAGPGGGAERRRAGRLLLTLPLLRQTAGKVLAHFYGVKLEGKVPMHKLFLEMLEAMMD [M258V;Q262E] | disrupting interaction strength
MSSQVVGIEPLYIKAEPASPDSPKGSSETETEPPVALAPGPAPTRCLPGHKEEEDGEGAGPGEQGGGKLVLSSLPKRLCLVCGDVASGYHYGVASCEACKAFFKRTIQGSIEYSCPASNECEITKRRRKACQACRFTKCLRVGMLKEGVRLDRVRGGRQKYKRRPEVDPLPFPGPFPAGPLAVAGGPRKTAAPVNALVSHLLVVEPEKLYAMPDPAGPDGHLPAVATLCDLFDREIVVTISWAKSIPGFSSLSLSDQMSVLQSVWMEVLVLGVAQRSLPLQDELAFAEDLVLDEEGARAAGLGELGAALLQLVRRLQALRLEREEYVLLKALALANSDSVHIEDAEAVEQLREALHEALLEYEAGRAGPGGGAERRRAGRLLLTLPLLRQTAGKVLAHFYGVKLEGKVPMHKLFLEMLEAMMA [D423A] | decreasing interaction strength
MSSQVVGIEPLYIKAEPASPDSPKGSSETETEPPVALAPGPAPTRCLPGHKEEEDGEGAGPGEQGGGKLVLSSLPKRLCLVCGDVASGYHYGVASCEACKAFFKRTIQGSIEYSCPASNECEITKRRRKACQACRFTKCLRVGMLKEGVRLDRVRGGRQKYKRRPEVDPLPFPGPFPAGPLAVAGGPRKTAAPVNALVSHLLVVEPEKLYAMPDPAGPDGHLPAVATLCDLFDREIVVTISWAKSIPGFSSLSLSDQMSVLQSVWMEVLVLGVAQRSLPLQDELAFAEDLVLDEEGARAAGLGELGAALLQLVRRLQALRLEREEYVLLKALALANSDSVAIEDAEAVEQLREALHEALLEYEAGRAGPGGGAERRRAGRLLLTLPLLRQTAGKVLAHFYGVKLEGKVPMHKLFLEMLEAMMD [H341A] | decreasing interaction strength

Variants of: B1
Conditions: with prgc1_human PPARGC1A
Remark: another data set of the same source

Variant | effect of a mutation on the interaction
MSSQVVGIEPLYIKAEPASPDSPKGSSETETEPPVALAPGPAPTRCLPGHKEEEDGEGAGPGEQGGGKLVLSSLPKRLCLVCGDVASGYHYGVASCEACKAFFKRTIQGSIEYSCPASNECEITKRRRKACQACRFTKCLRVGMLKEGVRLDRVRGGRQKYKRRPEVDPLPFPGPFPAGPLAVAGGPRKTAAPVNALVSHLLVVEPEKLYAMPDPAGPDGHLPAVATLCDLFDREIVVTISWAKSIPGFSSLSLSDQMSVLQSVWMEVLVLGVAQRSLPLQDELAFAEDLVLDEEGARAAGLGELGAALLQLVRRLQALRLEREEYVLLKALALANSASVHIEDAEAVEQLREALHEALLEYEAGRAGPGGGAERRRAGRLLLTLPLLRQTAGKVLAHFYGVKLEGKVPMHKLFLEMLEAMMD [D338A] | disrupting interaction strength
MSSQVVGIEPLYIKAEPASPDSPKGSSETETEPPVALAPGPAPTRCLPGHKEEEDGEGAGPGEQGGGKLVLSSLPKRLCLVCGDVASGYHYGVASCEACKAFFKRTIQGSIEYSCPASNECEITKRRRKACQACRFTKCLRVGMLKEGVRLDRVRGGRQKYKRRPEVDPLPFPGPFPAGPLAVAGGPRKTAAPVNALVSHLLVVEPEKLYAMPDPAGPDGHLPAVATLCDLFDREIVVTISWAKSIPGFSSLSLSDQMSVLQSVWMEVLVLGVAQRSLPLQDELAFAEDLVLDEEGARAAGLGELGAALLQLVRALQALRLEREEYVLLKALALANSDSVHIEDAEAVEQLREALHEALLEYEAGRAGPGGGAERRRAGRLLLTLPLLRQTAGKVLAHFYGVKLEGKVPMHKLFLEMLEAMMD [R315A] | disrupting interaction strength
MSSQVVGIEPLYIKAEPASPDSPKGSSETETEPPVALAPGPAPTRCLPGHKEEEDGEGAGPGEQGGGKLVLSSLPKRLCLVCGDVASGYHYGVASCEACKAFFKRTIQGSIEYSCPASNECEITKRRRKACQACRFTKCLRVGMLKEGVRLDRVRGGRQKYKRRPEVDPLPFPGPFPAGPLAVAGGPRKTAAPVNALVSHLLVVEPEKLYAMPDPAGPDGHLPAVATLCDLFDREIVVTISWAKSIPGFSSLSLSDQMHVLQSVWMEVLVLGVAQRSLPLQDELAFAEDLVLDEEGARAAGLGELGAALLQLVRRLQALRLEREEYVLLKALALANSDSVHIEDAEAVEQLREALHEALLEYEAGRAGPGGGAERRRAGRLLLTLPLLRQTAGKVLAHFYGVKLEGKVPMHKLFLEMLEAMMD [S259H] | decreasing interaction strength

Variants of: B1
Conditions: with prgc1_human PPARGC1A
Remark: another data set of the same source

Variant | effect of a mutation on the interaction
MSSQVVGIEPLYIKAEPASPDSPKGSSETETEPPVALAPGPAPTRCLPGHKEEEDGEGAGPGEQGGGKLVLSSLPKRLCLVCGDVASGYHYGVASCEACKAFFKRTIQGSIEYSCPASNECEITKRRRKACQACRFTKCLRVGMLKEGVRLDRVRGGRQKYKRRPEVDPLPFPGPFPAGPLAVAGGPRKTAAPVNALVSHLLVVEPEKLYAMPDPAGPDGHLPAVATLCDLFDREIVVTISWAKSIPGFSSLSLSDQMSVLQSVWMEVLVLGVAQRSLPLQDELAFAEDLVLDEEGARAAGLGELGAALLQLVRRLQALRLEREEYVLLKALALANSDSVHIEDAEAVEQLREALHEALLEYEAGRAGPGGGAERRRAGRLLLTLPLLRQTAGKVLAHFYGVKLEGKVPMHKLFLEMLEAMMA [D423A] | with no effect

Variants of: B1
Conditions: with prgc1_human PPARGC1A
Remark: another data set of the same source

Variant | effect of a mutation on the interaction
MSSQVVGIEPLYIKAEPASPDSPKGSSETETEPPVALAPGPAPTRCLPGHKEEEDGEGAGPGEQGGGKLVLSSLPKRLCLVCGDVASGYHYGVASCEACKAFFKRTIQGSIEYSCPASNECEITKRRRKACQACRFTKCLRVGMLKEGVRLDRVRGGRQKYKRRPEVDPLPFPGPFPAGPLAVAGGPRKTAAPVNALVSHLLVVEPEKLYAMPDPAGPDGHLPAVATLCDLFDREIVVTISWAKSIPGFSSLSLSDQMSVLQSVWMEVLVLGVAQRSLPLQDELAFAEDLVLDEEGARAAGLGELGAALLQLVRRLQALRLEREEYVLLKALALANSDSVHIADAEAVEQLREALHEALLEYEAGRAGPGGGAERRRAGRLLLTLPLLRQTAGKVLAHFYGVKLEGKVPMHKLFLEMLEAMMD [E343A] | decreasing interaction strength

Variants of: B1
Conditions: with prgc1_human PPARGC1A
Remark: another data set of the same source

Variant | effect of a mutation on the interaction
MSSQVVGIEPLYIKAEPASPDSPKGSSETETEPPVALAPGPAPTRCLPGHKEEEDGEGAGPGEQGGGKLVLSSLPKRLCLVCGDVASGYHYGVASCEACKAFFKRTIQGSIEYSCPASNECEITKRRRKACQACRFTKCLRVGMLKEGVRLDRVRGGRQKYKRRPEVDPLPFPGPFPAGPLAVAGGPRKTAAPVNALVSHLLVVEPEKLYAMPDPAGPDGHLPAVATLCDLFDREIVVTISWAKSIPGFSSLSLSDQMSVLQSVWMEVLVLGVAQRSLPLQDELAFAEDLVLDEEGARAAGLGELGAALLQLVRRLQALRLEREEYVLLKALALANSDSVHIADAEAVEQLREALHEALLEYEAGRAGPGGGAERRRAGRLLLTLPLLRQTAGKVLAHFYGVKLEGKVPMHKLFLEMLEAMMD [E343A] | with no effect

Variants of: B2
Conditions: with prgc1_human PPARGC1A

Variant | effect of a mutation on the interaction
MTMTLHTKASGMALLHQIQGNELEPLNRPQLKIPLERPLGEVYLDSSKPAVYNYPEGAAYEFNAAAAANAQVYGQTGLPYGPGSEAAAFGSNGLGGFPPLNSVSPSPLMLLHPPPQLSPFLQPHGQQVPYYLENEPSGYTVREAGPPAFYRPNSDNRRQGGRERLASTNDKGSMAMESAKETRYCAVCNDYASGYHYGVWSCEGCKAFFKRSIQGHNDYMCPATNQCTIDKNRRKSCQACRLRKCYEVGMMKGGIRKDRRGGRMLKHKRQRDDGEGRGEVGSAGDMRAANLWPSPLMIKRSKKNSLALSLTADQMVSALLDAEPPILYSEYDPTRPFSEASMMGLLTNLADRELVHMINWAKRVPGFVDLTLHDQMHLLQCAWLEILMIGLVWRSMEHPGKLLFAPNLLLDRNQGKCVEGMVEIFDMLLATSSRFRMMNLQGEEFVCLKSIILLNSGVYTFLSSTLKSLEEKDHIHRVLDKITDTLIHLMAKAGLTLQQQHQRLAQLLLILSHIRHMSNKGMEHLYSMKCKNVVPLYDLLLEMLDAHRLHAPTSRGGASVEETDQSHLATAGSTSSHSLQKYYITGEAEGFPATV [V376M;E380Q] | increasing interaction strength
